Common to all, as to experiment: cell-based or functional assay
Experiment [1] addresses C20orf141 (human) (UniProt Q9NUB4).
The target in experiment [2] is CCDC24 (human) (UniProt Q8N4L8).
For experiment [3], the target named is DGCR6L (human) (UniProt Q9BY27).
Experiment [4] concerns the target DHRS10 (human) (UniProt Q9BPX1).
Experiment [5] deals with FANCG (human) (UniProt O15287).
In experiment [6] the target is FATE1 (human) (UniProt Q969F0).
In experiment [7] the target is FLJ22471 (human) (UniProt Q53HC0).
Experiment [8] deals with HOXB9 (human) (UniProt P17482).
In experiment [9] the target is KIAA1949 (human) (UniProt Q6NYC8).
The target in experiment [10] is KIF9 (human) (UniProt Q9HAQ2).
Experiment [11] has as its target KRT8 (human) (UniProt P05787).
Experiment [12] has as its target LENG1 (human) (UniProt Q96BZ8).
For experiment [13], the target named is LNX2 (human) (UniProt Q8N448).
For experiment [14], the target named is MRPS6 (human) (UniProt P82932).
Experiment [15] deals with MYEF2 (human) (UniProt Q9P2K5).
The target of experiment [16] is NEFL (human) (UniProt P07196).
Experiment [17] addresses NIF3L1 (human) (UniProt Q9GZT8).
The target in experiment [18] is NOS3 (human) (UniProt P29474).
Experiment [19] addresses SPG21 (human) (UniProt Q9NZD8).
Experiment [20] has as its target TTC23 (human) (UniProt Q5W5X9).
Experiment [21] has as its target ZNF614 (human) (UniProt Q8N883).
Experiment [22] has as its target HOXA3 (human) (UniProt O43365).
Experiment [23] deals with HOXD3 (human) (UniProt P31249).
Experiment [24] concerns the target LOC541468 (human) (UniProt Q96LR2).
Experiment [25] addresses MIZF (human) (UniProt Q9BQA5).
Experiment [26] addresses PDE9A (human) (UniProt O76083).
The target of experiment [27] is SF3A3 (human) (UniProt Q12874).

HTLV-1 Tax p40: the HTLV LTR transactiv. (fold change) in experiment [1] turned out to be 2.8 fold change; in experiment [2], 2.88 fold change; in [3] it was 0.24 fold change; in experiment [4], 0.41 fold change; in experiment [5] it was 3.48 fold change; in experiment [6], 0.49 fold change. Moreover, the HTLV LTR transactiv. (fold change) in experiment [7] was determined as 2.25 fold change; in experiment [8] it was 3.69 fold change; in experiment [9] it was 0.35 fold change; in experiment [10], 0.37 fold change; in [11], 0.24 fold change; in experiment [12], 0.34 fold change. Moreover, the HTLV LTR transactiv. (fold change) in experiment [13] was determined as 0.28 fold change; in experiment [14], 0.38 fold change; in experiment [15] it was 2.53 fold change; in experiment [16], 0.45 fold change; in [17] it was 0.39 fold change; in [18], 0.45 fold change. For the same substance, the HTLV LTR transactiv. (fold change) in [19] stood at 0.21 fold change; in experiment [20] it was 0.21 fold change; in experiment [21], 5.24 fold change.
As for HIV-1 Tat, the HIV LTR transactiv. (fold change) stood at 0.29 fold change in experiment [22]; 7.3 fold change in experiment [23]; 0.26 fold change in experiment [13]; 2.38 fold change in experiment [24]; 2.5 fold change in [25]; 0.28 fold change in experiment [26]. In addition, the HIV LTR transactiv. (fold change) in [27] is 0.49 fold change.

(Values after US20120090043A1, “TARGETS FOR RETROVIRUS ASSOCIATED DISEASES” (priority 2009, published 2012).)
